Measured values taken from PMC8965321.

Molecular target: GP46 protein of Lactococcus lactis phage vB_Llc_bIBBF13 (F13), purified, SUMO tag removed (Lactococcus lactis phage vB_Llc_bIBBF13 (F13))
Assay: SEC-MALS; GP46F13 100 ul injected at 1.5 mg/ml on Superdex 200 Increase 10/300, room temperature, 0.5 ml/min, 50 mM Tris-HCl pH 8, 500 mM NaCl, 20 mM imidazole, no cofactors

For “GP46 protein of Lactococcus lactis phage vB_Llc_bIBBF13 (F13), purified, SUMO tag removed (enzyme)”, the stoichiometry N was 2.
